Data as given in the RNAGym collection of RNA variant scans (doi:10.7554/elife.90254).

B1: LINE1-full (parent)
chain: UACGUAGGUGGUUUUCCCCUGAUAGUGCUAAGGGGGCCUGGAAGUUUGGACUGGGCAGAGCUCAACACAGCGUGGCAAAGUGGCUGUGGCUAGACUGCCUCUCUGGAUUCCUCGUCACUCAGCAGGGCAUCUCUGAGAGAAAUGCC

Variants of: B1
Assay: self-cleavage, relative activity (ratio to wild type); higher = more cleavage; in vitro, sequencing; the parent is a self-cleaving ribozyme

Variant	self-cleavage
C95U U96C	0.07
U91C A141U	0.51
G93U A140G	0.05
G93U A136G	0.08
G97A U115C	0.3
G97C G106U	0.2
C98U C123U	0.35
U96C U109G	0.16
U96C U109A	0.15
U96C U109C	0.08
U96C G105A	0.06
G93U	0.06
G93C	0.05
G93A	0.04
A92U C110U	0.46
A92C A121U	0.05
U96A A121G	0.1
U96A A121C	0.06
C95A G114A	0.07
A92C U112C	0.18
G93U G122A	0.06
C98A	0.17
C98U	0.4
C98G	0.13

Variant	self-cleavage
A92G U104A	0.06
U96A U104G	0.08
U96A U134C	0.08
U96G U115C	0
A92U U115A	0.62
A92U U115C	0.72
A94G U132G	0.28
C95U A124U	0.2
A92U G126A	0.41
C98G U102C	0.14
A94U A117G	0.38
A94U A117U	0.41
A94U U96A	0.08
A92C U130A	0.28
A92G U109A	0.08
A92G U109C	0.09
U91C U143A	0.72
U91C U143G	0.62
U91C U143C	0.78
G97A U130C	0.19
G97A G114A	0.15
C98U U130C	0.5
U96C C99U	0.1
G93A U102C	0.06

Variant	self-cleavage
G93U U109C	0.02
C98U A140G	0.57
U96C U143A	0.13
A92U U104A	0.44
A94G U102C	0.18
U96C G127U	0.19
U96C G127A	0.08
U96C G127C	0.39
A92C U102C	0.14
U91C C118U	0.67
U91C U102C	0.4
C95A U112C	0.05
U96A U143C	0.06
U96A U143G	0.1
U96A U143A	0.38
A92G A138U	0.11
U96C A107U	0.17
A92G C110U	0.05
U96C U134C	0.11
A94U G105A	0.21
G93C C120U	0.03
U96C C131U	0.09
U91C G122A	0.29
A92G	0.1

Variant	self-cleavage
A92C	0.13
A92U	0.66
A94G G97A	0.02
U96C A121G	0.12
U96C A121C	0.09
U96A C99U	0.03
A94G A129U	0.22
G97A A141G	0.12
U91C U119G	1.53
U91C U119A	0.48
A94G A124U	0.36
A94C U96C	0.18
A92U U119C	0.87
A92G A140G	0.15
G93U A107G	0.06
U91C A92U	0.23
U91C A92G	0.1
U96C U108C	0.17
U96C U108G	0
U96A G122A	0.06
U96C C101U	0.06
A94U U109A	0.27
G97A G126A	0.09
G97A G126U	0.07

Variant	self-cleavage
U96G A124G	0.19
G93A U130C	0.02
U91G C146U	0.1
U96A G125U	0.09
U96G U109C	0.17
U91C C110G	0.58
U96C U130A	0.12
G93U U102C	0.04
U96C C123U	0.04
C95A U143C	0.08
G93U U115C	0.04
A92G G122A	0.13
U96G G126A	0
U96C A140G	0.09
U96C A129C	0.15
A92G A107U	0.09
A92G G114A	0.1
G97U U132A	0.03
U96A U100A	0.07
A92U U132A	0.69
A92U U132C	0.83
G97A A121C	0.12
U96C G114A	0.11
U96A C103A	0.06

Variant	self-cleavage
A94G A121G	0.22
A94G A121C	0.57
G97U A129U	0.08
A92C A142G	0.33
G93A U132C	0.03
U91C U108C	0.62
U91C A138G	1.98
U91C C120A	0.74
A94C C95U	0.02
A92G U134C	0
A94U A142C	0.09
A94U A142G	0.34
A94U A140G	0.23
A94U U108C	0.46
A94G C110U	0.32
A94G C110G	0.22
A92G U96C	0.25
G93A G122C	0.01
U91C A140C	0.38
G97A A140U	0.02
U91C C113A	0.82
A94G A141U	0.19
U96A U109C	0.1
C95U	0.14

Variant	self-cleavage
C95A	0.07
C95G	0.06
U96A U112C	0.06
G93A U108C	0.03
C95A U100C	0.09
U91C A142G	0.73
U96A U132A	0.08
U91G A121G	0.33
G97C C111A	0.18
A94G U143A	0.55
G97U A138U	0.11
U96A A142G	0.08
U96A A124U	0.06
U91C U96A	0.08
U91G A141G	0.06
G93A C95G	0.04
G97A U104A	0.06
C99A A107G	0.61
U96A A141G	0.08
A92C C113U	0.14
U91C C145U	0.43
G93A U109G	0.06
G93A U109A	0.03
